Assays:
[1] = target: human CD147 on the surface of human cell lines (human) (UniProt P35613); assay: cell-based or functional assay
[2] = target: human CD147 on the surface of human cell lines (human) (UniProt P35613); assay: FACS on human KYSE-70 esophageal epithelial cell line, Alexa Fluor 647 goat anti-human IgG detection

B1: humanized anti-human CD147 monoclonal antibody hu 3A11 Lc1/Hc1 (antibody, V domains shown)
VH: EVQLVESGGGLVQPGGSLRLSCAASGFTFSNYWMDWVRQAPGKGLEWVGEIRLKSYNYATHYAASVKGRFTISRDDSKNSVYLQMNSLKTEDTAVYYCTAAGTDYWGQGTLVTVSS
VL: DIQMTQSPSSLSASVGDRVTITCRASQSVRTDVGWYQQKPGKAPKLLIYYSSNRYTGVPSRFSGSGSGTDFTLTISSLQPEDFATYYCQQDYSSPYTFGQGTKLEIK
- EC50 of cytotoxicity, A253 cells (with vc-MMAE secondary antibody) [1]: < 1 nM
- EC50 of cytotoxicity, BHY cells (with vc-MMAE secondary antibody) [1]: < 1 nM
- EC50 of cytotoxicity, Detroit562 cells (with vc-MMAE secondary antibody) [1]: 0.008 nM
- EC50 of cytotoxicity, EFO-21 cells (with vc-MMAE secondary antibody) [1]: 1.4 nM
- EC50 of cytotoxicity, H69 cells (with vc-MMAE secondary antibody) [1]: 1 nM
- EC50 of cytotoxicity, H292 cells (with vc-MMAE secondary antibody) [1]: 0.07 nM
- EC50 of cytotoxicity, H358 cells (with vc-MMAE secondary antibody) [1]: 0.09 nM
- EC50 of cytotoxicity, H520 cells (with vc-MMAE secondary antibody) [1]: 11.2 nM
- EC50 of cytotoxicity, H1581 cells (with vc-MMAE secondary antibody) [1]: 0.039 nM
- EC50 of cytotoxicity, H1975 cells (with vc-MMAE secondary antibody) [1]: 0.09 nM
- EC50 of cytotoxicity, H2405 cells (with vc-MMAE secondary antibody) [1]: 0.3 nM
- EC50 of cytotoxicity, H2444 cells (with vc-MMAE secondary antibody) [1]: 1.8 nM
- EC50 of cytotoxicity, HCC 70 cells (with vc-MMAE secondary antibody) [1]: 0.94 nM
- EC50 of cytotoxicity, HCC1143 cells (with vc-MMAE secondary antibody) [1]: < 1 nM
- EC50 of cytotoxicity, HCC 1806 cells (with vc-MMAE secondary antibody) [1]: 0.68 nM
- EC50 of cytotoxicity, HCC1937 cells (with vc-MMAE secondary antibody) [1]: < 1 nM
- EC50 of cytotoxicity, HCC1954 cells (with vc-MMAE secondary antibody) [1]: < 1 nM
- EC50 of cytotoxicity, HCT 116 cells (with vc-MMAE secondary antibody) [1]: 1.8 nM
- EC50 of cytotoxicity, HPAC cells (with vc-MMAE secondary antibody) [1]: 0.21 nM
- EC50 of cytotoxicity, HPAF2 cells (with vc-MMAE secondary antibody) [1]: < 1 nM
- EC50 of cytotoxicity, KYSE70 cells (with vc-MMAE secondary antibody) [1]: 0.13 nM
- EC50 of cytotoxicity, KYSE150 cells (with vc-MMAE secondary antibody) [1]: 1.6 nM
- EC50 of cytotoxicity, LOVO cells (with vc-MMAE secondary antibody) [1]: < 1 nM
- EC50 of cytotoxicity, LS174T cells (with vc-MMAE secondary antibody) [1]: 1 nM
- EC50 of cytotoxicity, LS411N cells (with vc-MMAE secondary antibody) [1]: < 1 nM
- EC50 of cytotoxicity, PC3 cells (with vc-MMAE secondary antibody) [1]: < 1 nM
- EC50 of cytotoxicity, RT11-2/84 cells (with vc-MMAE secondary antibody) [1]: 1.94 nM
- EC50 of cytotoxicity, SCC1 cells (with vc-MMAE secondary antibody) [1]: 0.14 nM
- EC50 of cytotoxicity, SCC9 cells (with vc-MMAE secondary antibody) [1]: 0.37 nM
- EC50 of cytotoxicity, SCC25 cells (with vc-MMAE secondary antibody) [1]: 0.2 nM
- EC50 of cytotoxicity, SKOV3 cells (with vc-MMAE secondary antibody) [1]: 0.95 nM
- EC50 of cytotoxicity, SW1417 cells (with vc-MMAE secondary antibody) [1]: 0.8 nM
- EC50 of cytotoxicity, aspc1 cells (with vc-MMAE secondary antibody) [1]: 20.5 nM
- EC50 of cytotoxicity, miapaca1 cells (with vc-MMAE secondary antibody) [1]: 0.65 nM
- EC50 of cytotoxicity, sw48 cells (with vc-MMAE secondary antibody) [1]: < 1 nM
- EC50 of cytotoxicity, sw480 cells (with vc-MMAE secondary antibody) [1]: < 1 nM
- EC50 of in vitro cytotoxicity, A253 cells (with vc-MMAE secondary antibody) [1]: < 1 nM
- EC50 of in vitro cytotoxicity, AGS cells (with vc-MMAE secondary antibody) [1]: 0.09 nM
- EC50 of in vitro cytotoxicity, BHY cells (with vc-MMAE secondary antibody) [1]: < 1 nM
- EC50 of in vitro cytotoxicity, Detroit562 cells (with vc-MMAE secondary antibody) [1]: 0.008 nM
- EC50 of in vitro cytotoxicity, EFO-21 cells (with vc-MMAE secondary antibody) [1]: 1.4 nM
- EC50 of in vitro cytotoxicity, ESO26 cells (with vc-MMAE secondary antibody) [1]: 0.06 nM
- EC50 of in vitro cytotoxicity, FLO-1 cells (with vc-MMAE secondary antibody) [1]: 0.51 nM
- EC50 of in vitro cytotoxicity, H69 cells (with vc-MMAE secondary antibody) [1]: 1 nM
- EC50 of in vitro cytotoxicity, H226 cells (with vc-MMAE secondary antibody) [1]: 0.45 nM
- EC50 of in vitro cytotoxicity, H292 cells (with vc-MMAE secondary antibody) [1]: 0.07 nM
- EC50 of in vitro cytotoxicity, H358 cells (with vc-MMAE secondary antibody) [1]: 0.09 nM
- EC50 of in vitro cytotoxicity, H520 cells (with vc-MMAE secondary antibody) [1]: 11.2 nM
- EC50 of in vitro cytotoxicity, H1581 cells (with vc-MMAE secondary antibody) [1]: 0.039 nM
- EC50 of in vitro cytotoxicity, H1975 cells (with vc-MMAE secondary antibody) [1]: 0.09 nM
- EC50 of in vitro cytotoxicity, H2052 cells (with vc-MMAE secondary antibody) [1]: 0.03 nM
- EC50 of in vitro cytotoxicity, H2405 cells (with vc-MMAE secondary antibody) [1]: 0.3 nM
- EC50 of in vitro cytotoxicity, H2444 cells (with vc-MMAE secondary antibody) [1]: 1.8 nM
- EC50 of in vitro cytotoxicity, H2452 cells (with vc-MMAE secondary antibody) [1]: 0.94 nM
- EC50 of in vitro cytotoxicity, HCC 70 cells (with vc-MMAE secondary antibody) [1]: 0.94 nM
- EC50 of in vitro cytotoxicity, HCC1143 cells (with vc-MMAE secondary antibody) [1]: < 1 nM
- EC50 of in vitro cytotoxicity, HCC 1806 cells (with vc-MMAE secondary antibody) [1]: 0.68 nM
- EC50 of in vitro cytotoxicity, HCC1937 cells (with vc-MMAE secondary antibody) [1]: < 1 nM
- EC50 of in vitro cytotoxicity, HCC1954 cells (with vc-MMAE secondary antibody) [1]: < 1 nM
- EC50 of in vitro cytotoxicity, HCT 116 cells (with vc-MMAE secondary antibody) [1]: 1.8 nM
- EC50 of in vitro cytotoxicity, HPAC cells (with vc-MMAE secondary antibody) [1]: 0.21 nM
- EC50 of in vitro cytotoxicity, HPAF2 cells (with vc-MMAE secondary antibody) [1]: < 1 nM
- EC50 of in vitro cytotoxicity, HT29 (WIDR) cells (with vc-MMAE secondary antibody) [1]: 0.87 nM
- EC50 of in vitro cytotoxicity, Hs 746T cells (with vc-MMAE secondary antibody) [1]: 0.06 nM
- EC50 of in vitro cytotoxicity, KYSE70 cells (with vc-MMAE secondary antibody) [1]: 0.13 nM
- EC50 of in vitro cytotoxicity, KYSE150 cells (with vc-MMAE secondary antibody) [1]: 0.88 nM
- EC50 of in vitro cytotoxicity, KYSE410 cells (with vc-MMAE secondary antibody) [1]: 1.35 nM
- EC50 of in vitro cytotoxicity, LOVO cells (with vc-MMAE secondary antibody) [1]: < 1 nM
- EC50 of in vitro cytotoxicity, LS174T cells (with vc-MMAE secondary antibody) [1]: 1 nM
- EC50 of in vitro cytotoxicity, LS411N cells (with vc-MMAE secondary antibody) [1]: < 1 nM
- EC50 of in vitro cytotoxicity, MSTO-211H cells (with vc-MMAE secondary antibody) [1]: 0.37 nM
- EC50 of in vitro cytotoxicity, OACM5.1 C cells (with vc-MMAE secondary antibody) [1]: 1.1 nM
- EC50 of in vitro cytotoxicity, OE33 cells (with vc-MMAE secondary antibody) [1]: 0.29 nM
- EC50 of in vitro cytotoxicity, PC3 cells (with vc-MMAE secondary antibody) [1]: < 1 nM
- EC50 of in vitro cytotoxicity, RT11-2/84 cells (with vc-MMAE secondary antibody) [1]: 1.94 nM
- EC50 of in vitro cytotoxicity, SCC1 cells (with vc-MMAE secondary antibody) [1]: 0.14 nM
- EC50 of in vitro cytotoxicity, SCC9 cells (with vc-MMAE secondary antibody) [1]: 0.37 nM
- EC50 of in vitro cytotoxicity, SCC25 cells (with vc-MMAE secondary antibody) [1]: 0.2 nM
- EC50 of in vitro cytotoxicity, SK-GT-4 cells (with vc-MMAE secondary antibody) [1]: < 0.1 nM
- EC50 of in vitro cytotoxicity, SKBR3 cells (with vc-MMAE secondary antibody) [1]: 0.38 nM
- EC50 of in vitro cytotoxicity, SKOV3 cells (with vc-MMAE secondary antibody) [1]: 0.95 nM
- EC50 of in vitro cytotoxicity, SNU-1 cells (with vc-MMAE secondary antibody) [1]: 0.21 nM
- EC50 of in vitro cytotoxicity, SNU-5 cells (with vc-MMAE secondary antibody) [1]: 0.11 nM
- EC50 of in vitro cytotoxicity, SNU-16 cells (with vc-MMAE secondary antibody) [1]: 1.14 nM
- EC50 of in vitro cytotoxicity, SW1417 cells (with vc-MMAE secondary antibody) [1]: 0.8 nM
- EC50 of in vitro cytotoxicity, aspc1 cells (with vc-MMAE secondary antibody) [1]: 20.5 nM
- EC50 of in vitro cytotoxicity, miapaca1 cells (with vc-MMAE secondary antibody) [1]: 0.65 nM
- EC50 of in vitro cytotoxicity, sw48 cells (with vc-MMAE secondary antibody) [1]: < 1 nM
- EC50 of in vitro cytotoxicity, sw480 cells (with vc-MMAE secondary antibody) [1]: < 1 nM
- Kd [2]: 1.65 nM

From patent US20180303952A1
